Results from US20250242023A1 (published 2025).

T1: mesothelin (MsIn), murine peptide on H-2Db (mouse)
T1 peptide: GQKMNAQAI


Key:
[1] = biological target: T1, mesothelin (MsIn), murine peptide on …; assay: multimer staining
Source text: Flow cytometry: Mononuclear cells were stained with MsIn₄₀₆₋₄₁₄:H-2D^b-APC or -BV421 tetramer (1:100) in the presence of 1:100 Fc block (αCD16/32, Tonbo), and monoclonal antibodies diluted 1:100 in FACs Buffer (2% BSA+PBS) or (2.5% FBS+PBS+1% NaN₃) and specific to CD45 (30F-11, Biolegend), CD8a (53-6.7, Tonbo), CD44 (IM7, BD Biosciences), CD62L (MEL-14, Biolegend), CD69 (H1.2F3, BD Biosciences), CD25 (PC61, BD Biosciences), Vβ9 (MR10-2, Biolegend), CD3e (145-2C11, BD Biosciences), CD4 (GK1.5, BD Biosciences), and/or TCRβ (h57-597, eBiosciences) in the presence of live/dead stain (Tonbo Ghost dye in BV510 or APC ef780). Cells were fixed using Foxp3 transcription factor reagent (Tonbo), for 30 minutes at 4° C., washed and intracellular stained with aKi67 (B56, BD Biosciences) and/or Foxp3 (3G3, Tonbo) diluted 1:100 in Fix/Perm buffer (Tonbo) and stained overnight. The next day, cells were washed 2× with perm wash buffer and resuspended in FACs buffer or 0.4% PFA for 15 minutes at 4° C. Cells were resuspended in FACs buffer and Countbright Absolute Counting Beads (Thermo Fisher). Cells were acquired with a Fortessa 1770 flow cytometer and Facs Diva software (BD Biosciences). Data were analyzed using FlowJo software (version 10). ViSNE analysis was performed by gating on total live T cells with default settings of 1000 iterations, 30 perplexity and theta of 0.5 using Cytobank software.

[2] = biological target: T1, mesothelin (MsIn), murine peptide on …; assay: cytokine release

| Binder | binding result [1] | binding result [2] |
| --- | --- | --- |
| 1045 TCR (TCR, V domains shown) Valpha: GDSVTQTEGPVTVSESESLIINCTYSATSIAYPNLFWYVRYPGEGLQLLLKVITAGQKGSSRGFEATYNKETTSFHLQKASVQESDSAVYYCALGLDYANKMIFGLGTILRVRP Vbeta: DTTVKQNPRYKLARVGKPVNLICSQTMNHDTMYWYQKKPNQAPKLLLFYYDKILNREADTFEKFQSSRPNNSFCSLYIGSAGLEYSAMYLCASSNPQDTQYFGPGTRLLVL | recognises |  |
| 7431 TCR (TCR, V domains shown) Valpha: GDSVTQTEGPVTVSESESLIINCTYSATSIAYPNLFWYVRYPGEGLQLLLKVITAGQKGSSRGFEATYNKETTSFHLQKASVQESDSAVYYCALGPDTNAYKVIFGKGTHLHVLP Vbeta: DTTVKQNPRYKLARVGKPVNLICSQTMNHDTMYWYQKKPNQAPKLLLFYYDKILNREADTFEKFQSSRPNNSFCSLYIGSAGLEYSAMYLCASSRGANTEVFFGKGTRLTVV |  | recognises |
